Publication PMC4002474, “Secretoglobin 1A1 and 1A1A Differentially Regulate Neutrophil Reactive Oxygen Species Production, Phagocytosis and Extracellular Trap Formation” (PLoS ONE, 2014)
Blank lines part the entries; values can stand above or below the molecule they belong to.

How the values were obtained:
[1] = molecular target: equine recombinant SCGB 1A1A (horse (E. caballus)); assay: non-reducing SDS-PAGE; purified recombinant protein run on SDS-PAGE in non-reducing conditions; dimers and monomers confirmed by Western blot under denaturing and mild reducing conditions
[2] = molecular target: the molecule itself; assay: as above

stoichiometry N [1]: 2
Molecule: equine recombinant SCGB 1A1A (natural protein)

B1: equine recombinant SCGB 1A1 (secretoglobin family 1A member 1) (natural protein, horse (E. caballus), UniProt Q8MKG2 22-91, looked up)
chain: EICQSFADIIQGLFLGTPASFEAAVEPFKPDADMKAATTQLKTLVDFLPKNTKDSILKLMDKIAKSPLCA
notes: SCGB 1A1 of the horse (E. caballus), mature protein without the signal peptide, cDNA from equine lung, 100% identical to NCBI JQ906260.1; Cloned in pMAL-c5X, said to add no vector-derived residues after Factor Xa cleavage; Disulfide-dependent homodimer; also called club (Clara) cell secretory protein; CCSP; source: E. coli BL21 (NEB Express), purified (amylose column, Factor Xa, FPLC SuperDex …)
stoichiometry N [2]: 2
